# Laboratory results: patent publication US20140154256A1 (published 2014)
# T1: recombinant human IL-1α (human, UniProt P01583 113-271)
# T1 sequence (looked up): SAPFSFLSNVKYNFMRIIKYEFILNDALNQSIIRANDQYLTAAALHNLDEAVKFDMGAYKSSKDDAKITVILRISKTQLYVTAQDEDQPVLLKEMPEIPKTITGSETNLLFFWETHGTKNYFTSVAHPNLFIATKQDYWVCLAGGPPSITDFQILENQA
# T2: mouse IL-1α (mouse, UniProt P01582 115-270)
# T2 sequence (looked up): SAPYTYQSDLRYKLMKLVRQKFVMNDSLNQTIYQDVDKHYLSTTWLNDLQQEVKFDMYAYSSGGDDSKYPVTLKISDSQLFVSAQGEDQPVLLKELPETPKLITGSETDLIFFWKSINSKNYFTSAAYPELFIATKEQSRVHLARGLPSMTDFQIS
# T3: human IL-12 (human, UniProt P29459 23-219; P29460 23-328)
# T3 construct: also called hIL-12
# T3 sequence (looked up) 1: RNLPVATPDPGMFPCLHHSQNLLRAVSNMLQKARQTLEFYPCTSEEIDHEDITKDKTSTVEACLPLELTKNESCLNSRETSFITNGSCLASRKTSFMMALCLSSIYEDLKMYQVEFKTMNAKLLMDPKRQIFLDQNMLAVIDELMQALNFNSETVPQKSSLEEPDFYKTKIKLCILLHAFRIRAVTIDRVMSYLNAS
# T3 sequence (looked up) 2: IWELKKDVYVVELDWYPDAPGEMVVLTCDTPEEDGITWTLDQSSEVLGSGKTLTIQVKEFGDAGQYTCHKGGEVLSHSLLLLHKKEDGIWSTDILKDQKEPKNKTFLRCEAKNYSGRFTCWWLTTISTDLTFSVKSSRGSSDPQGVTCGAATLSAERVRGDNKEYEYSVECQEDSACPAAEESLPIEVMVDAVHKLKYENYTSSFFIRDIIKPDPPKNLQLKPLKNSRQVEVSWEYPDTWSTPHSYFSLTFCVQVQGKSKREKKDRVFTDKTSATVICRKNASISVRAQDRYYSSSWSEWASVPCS
# Columns and labels:
# [1] = target: T1, recombinant human IL-1α; assay: cell-based or functional assay
# [2] = target: T2, mouse IL-1α; assay: cell-based or functional assay
# [3] = target: T3, human IL-12; assay: SPR (Biacore)
# [4] = target: T4, human IL-18 (human, UniProt Q14116 37-193); assay: SPR (Biacore)
# T4 construct: also called hIL-18
# [5] = target: T3, human IL-12; assay: cell-based or functional assay
# [6] = target: T4, human IL-18; assay: cell-based or functional assay
# [7] = target: T1, recombinant human IL-1α; assay: SPR (Biacore)
# [8] = target: T5, recombinant human IL-1β (human, UniProt P01584 117-269); assay: SPR (Biacore)
# T5 construct: also called rhIL-1β; hIL-1β
# [9] = target: T1, recombinant human IL-1α; assay: cell-based or functional assay; remark: listed apart in the source
# [10] = target: T5, recombinant human IL-1β; assay: cell-based or functional assay
# [11] = target: mouse IL-1β (mouse, UniProt P10749 118-269); assay: cell-based or functional assay
# Chain of mouse IL-1β (P10749 118-269 limits assumed): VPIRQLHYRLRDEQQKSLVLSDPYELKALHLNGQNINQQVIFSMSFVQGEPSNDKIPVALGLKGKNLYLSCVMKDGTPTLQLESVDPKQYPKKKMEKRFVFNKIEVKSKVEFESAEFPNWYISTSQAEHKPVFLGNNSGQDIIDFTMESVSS
# [12] = target: T5, recombinant human IL-1β; assay: cell-based or functional assay; remark: listed apart in the source
binder,measurement,setting,value
"murine monoclonal antibody 6H3.1A4.3E11 (anti-hIL-1α) (antibody, V domains shown) VH: QVQLQQPGAELVRPGASVKLSCKASGYTFTTYWMNWVKQRPEQGLEWIGRIDPYDSETLYSQKFKDTAILTVDKSSSTAYMQLSSLTSEDSAVYYCARYGFDYWGQGTTLTVSS VL: QIVLTQSPALMSASPGEKVTMTCSASSSVNYMYWYQQKPRSSPKPWIYLTSNLASGVPARFSGSGSGTSYSLTISSMEAEDAATYYCQQWNSNPYTFGGGTKLEMKR","IC50 (M), MRC-5 bioassay (IL-8 production)",[1],2.4e-10 M
"mouse anti-mouse IL-1α mAb clone 9H10 (antibody, V domains shown) VH: QVILKESGPGILQPSQTLSLTCSFSGFSLSTYGTAVNWIRQPSGKGLEWLAQIGSDDRKLYNPFLKSRITLSEDTSNSQVFLKITSVDTEDSATYYCANGVMEYWGLGTSVTVSS VL: SIVMTQTPKFLLVSAGDRVTITCKASQSVNHDVAWYQQMPGQSPKLLIYFASNRYTGVPDRFTGSGYGTDFTFTISTVQAEDLAVYFCQQDYSSPYTFGGGTKLEIKR","IC50 (M), in vitro potency (assay not described)",[2],2e-10 M
"DVD1812LL (anti-IL12/IL18 DVD-Ig, 18-12-C, long linker) (bispecific antibody, human IgG1, kappa, also called DVD1812HC-LL / DVD1812LC-LL) heavy: not shown light: EIVMTQSPATLSVSPGERATLSCRASESISSNLAWYQQKPGQAPRLFIYTASTRATDIPARFSGSGSGTEFTLTISSLQSEDFAVYYCQQYNNWPSITFGQGTRLEIKRTVAAPSVFIFPPQSVLTQPPSVSGAPGQRVTISCSGSRSNIGSNTVKWYQQLPGTAPKLLIYYNDQRPSGVPDRFSGSKSGTSASLAITGLQAEDEADYYCQSYDRYTHPALLFGTGTKVTVLGTVAAPSVFIFPPSDEQLKSGTASVVCLLNNFYPREAKVQWKVDNALQSGNSQESVTEQDSKDSTYSLSSTLTLSKADYEKHKVYACEVTHQGLSSPVTKSFNRGEC",Kd,[3],113 pM
same,Kd,[4],162 pM
same,"Potency (IC50, M), IL-12-induced IFN-γ production by PHA blast cells",[5],1.18e-10 M
same,"Potency (IC50, M), KG-1 bioassay (IFN-γ production)",[6],7.8e-11 M
"hIL-1α/bDVD3a-Ig (bispecific antibody, human IgG1, kappa, 18F4.2C8 - short linker - 1B12.4H4 - C (a-b-C); also called hIL-1a/b DVD3a-Ig) heavy: not shown light: DIVMTQSQRFMSTSVGDRVSVTCKASQNVGTNIAWYQQKPGQSPRALIYSASYRYSGVPDRFTGSGSGTDFTLTISNVQSVDLAEYFCQQYTRYPLTFGGGTKLEIKRTVAAPETTVTQSPASLSMAIGEKVTIRCITSTDIDVDMNWYQQKPGEPPKLLISQGNTLRPGVPSRFSSSGSGTDFVFIIENMLSEDVADYYCLQSDNLPLTFGAGTKLELKRTVAAPSVFIFPPSDEQLKSGTASVVCLLNNFYPREAKVQWKVDNALQSGNSQESVTEQDSKDSTYSLSSTLTLSKADYEKHKVYACEVTHQGLSSPVTKSFNRGEC",Kd,[7],837 pM
same,Kd,[8],63700 pM
same,"Potency (IC50) M, MRC-5 bioassay",[9],750 pM
"murine monoclonal antibody 3D12.E3 (anti-hIL-1α) (antibody, V domains shown) VH: QIQLVQSGPELKKPGETVKISCKASGYTFRNYGMNWVKQAPGKDLKRMAWINTYTGESTYADDFKGRFAFSLETSASTAYLQINNLKNEDTATYFCARGIYYYGSSYAMDYWGQGTSVTVSS VL: NIQMTQTTSSLSASLGDRVTISCRASQDISNCLNWYQQKPDGTVKLLIYYTSRLHSGVPSRFSGSGSGTDYSLTISNLEQEDIATYFCQQGKTLPYAFGGGTKLEINR","IC50 (M), MRC-5 bioassay (IL-8 production)",[1],6.7e-10 M
"murine monoclonal antibody 1B12.4H4 (anti-hIL-1β) (antibody, V domains shown) VH: QVHLKESGPGLVAPSQSLSITCTVSGFSLTDYGVSWIRQPPGKGLEWLGLIWGGGDTYYNSPLKSRLSIRKDNSKSQVFLKMNSLQTDDTAVYYCAKQRTLWGYDLYGMDYWGQGTSVTVSS VL: ETTVTQSPASLSMAIGEKVTIRCITSTDIDVDMNWYQQKPGEPPKLLISQGNTLRPGVPSRFSSSGSGTDFVFIIENMLSEDVADYYCLQSDNLPLTFGAGTKLELKR","IC50 (M), MRC-5 bioassay (IL-8 production)",[10],5.3e-10 M
"mouse anti-mouse IL-1β mAb clone 10G11 (antibody, V domains shown) VH: EVQLQQSGPELVKPGTSVKMSCKTSGYTFTSYVMHWVKQKPGQGLEWIGYIIPYNDNTKYNEKFKGKATLTSDKSSSTAYMELSSLTSEDSAVYYCARRNEYYGSSFFDYWGQGTTLTVSS VL: DIQMTQSPASLSASVGETVTITCRGSGILHNYLVWYQQKQGKSPQLLVYSAKILADGVPSRFSGSGSGTQYSLKINSLQPEDFGSYYCQHFWSTPFTFGSGTKLEIKR","IC50 (M), in vitro potency (assay not described)",[11],3.7e-10 M
"murine monoclonal antibody 18F4.2C8 (anti-hIL-1α) (antibody, V domains shown) VH: EVQLQQSGAELVKPGASVKLSCTASGLNIKDTYMHWLKQRPEQGLEWIGRIDPANGNAKYDPRFLGKATITADTSSNTAYLQLSSLTSEDTAVYYCARGDGNFHFDYWGQGTTLTVSS VL: DIVMTQSQRFMSTSVGDRVSVTCKASQNVGTNIAWYQQKPGQSPRALIYSASYRYSGVPDRFTGSGSGTDFTLTISNVQSVDLAEYFCQQYTRYPLTFGGGTKLEIKR","IC50 (M), MRC-5 bioassay (IL-8 production)",[1],8.9e-11 M
"hIL-1α/bDVD6b-Ig (bispecific antibody, human IgG1, kappa, 6B12.4F6 - long linker - 6H3.1A4.3E11 - C (b-a-C); also called hIL-1a/b DVD6b-Ig) heavy: not shown light: QIVLTQSPAIMSASPGEKVTITCSASSSVSYMHWFQQKPGASPKLWIYSTSNLASGVPARFSGSGSGTSYSLTVSRMEAEDAATYYCQQRSTYPYTFGGGTKLEIKRTVAAPSVFIFPPQIVLTQSPALMSASPGEKVTMTCSASSSVNYMYWYQQKPRSSPKPWIYLTSNLASGVPARFSGSGSGTSYSLTISSMEAEDAATYYCQQWNSNPYTFGGGTKLEMKRTVAAPSVFIFPPSDEQLKSGTASVVCLLNNFYPREAKVQWKVDNALQSGNSQESVTEQDSKDSTYSLSSTLTLSKADYEKHKVYACEVTHQGLSSPVTKSFNRGEC",Kd,[7],820 pM
same,Kd,[8],697 pM
same,"Potency (IC50) M, MRC-5 bioassay",[9],1000 pM
same,"Potency (IC50) M, MRC-5 bioassay",[12],750 pM
"murine monoclonal antibody 6B12.4F6 (anti-hIL-1β) (antibody, V domains shown) VH: EVQLQQSGPELVKTGTSVKISCKASGYSFTGYYMHWVRQSHGKSLEWIGYISCYNGFTSYNPKFKGKATFTVDTSSSTAYIQFSRLTSEDSAVYYCARSDYYGTNDYWGQGTTLTVSS VL: QIVLTQSPAIMSASPGEKVTITCSASSSVSYMHWFQQKPGASPKLWIYSTSNLASGVPARFSGSGSGTSYSLTVSRMEAEDAATYYCQQRSTYPYTFGGGTKLEIKR","IC50 (M), MRC-5 bioassay (IL-8 production)",[10],3.2e-10 M
"murine monoclonal antibody 13F5.G5 (anti-hIL-1β) (antibody, V domains shown) VH: QVQLQQSGAELVRPGSSVKISCKASGYAFSSYWMNWVKQRPGQGLEWIGQIYPGDGDTNYNGKFKGKATLTADKSSSTSYMQLSGLTSEDSAMYFCVRFPTGNDYYAMDYWGQGTSVTVSS VL: NIVLTQSPASLAVSLGQRATISCRASESVDSYGNSYMHWYQQKPGQPPKLLIYLASNLESGVPARFSGSGSRTDFTLTIDPVEADDAATYYCQQNNEDPFTFGSGTKLEIKR","IC50 (M), MRC-5 bioassay (IL-8 production)",[10],6e-10 M
"hIL-1α/bDVD6a-Ig (bispecific antibody, human IgG1, kappa, 6H3.1A4.3E11 - long linker - 6B12.4F6 - C (a-b-C); also called hIL-1a/b DVD6a-Ig) heavy: not shown light: QIVLTQSPALMSASPGEKVTMTCSASSSVNYMYWYQQKPRSSPKPWIYLTSNLASGVPARFSGSGSGTSYSLTISSMEAEDAATYYCQQWNSNPYTFGGGTKLEMKRTVAAPSVFIFPPQIVLTQSPAIMSASPGEKVTITCSASSSVSYMHWFQQKPGASPKLWIYSTSNLASGVPARFSGSGSGTSYSLTVSRMEAEDAATYYCQQRSTYPYTFGGGTKLEIKRTVAAPSVFIFPPSDEQLKSGTASVVCLLNNFYPREAKVQWKVDNALQSGNSQESVTEQDSKDSTYSLSSTLTLSKADYEKHKVYACEVTHQGLSSPVTKSFNRGEC",Kd,[7],1060 pM
same,Kd,[8],2090 pM
same,"Potency (IC50) M, MRC-5 bioassay",[9],2300 pM
same,"Potency (IC50) M, MRC-5 bioassay",[12],70000 pM
"DVD1812SL (anti-IL12/IL18 DVD-Ig, 18-12-C, short linker) (bispecific antibody, human IgG1, kappa, also called DVD1812HC-SL / DVD1812LC-SL) heavy: not shown light: EIVMTQSPATLSVSPGERATLSCRASESISSNLAWYQQKPGQAPRLFIYTASTRATDIPARFSGSGSGTEFTLTISSLQSEDFAVYYCQQYNNWPSITFGQGTRLEIKRTVAAPQSVLTQPPSVSGAPGQRVTISCSGSRSNIGSNTVKWYQQLPGTAPKLLIYYNDQRPSGVPDRFSGSKSGTSASLAITGLQAEDEADYYCQSYDRYTHPALLFGTGTKVTVLGTVAAPSVFIFPPSDEQLKSGTASVVCLLNNFYPREAKVQWKVDNALQSGNSQESVTEQDSKDSTYSLSSTLTLSKADYEKHKVYACEVTHQGLSSPVTKSFNRGEC",Kd,[3],1820 pM
same,Kd,[4],191 pM
same,"Potency (IC50, M), IL-12-induced IFN-γ production by PHA blast cells",[5],3.66e-10 M
same,"Potency (IC50, M), KG-1 bioassay (IFN-γ production)",[6],4e-11 M
